Values quoted from earlier work as cited in article PMC7619008.

Target: substance P (Rattus norvegicus) (UniProt P06767)
Chain of UniProt P06767 (P06767 whole entry, looked up): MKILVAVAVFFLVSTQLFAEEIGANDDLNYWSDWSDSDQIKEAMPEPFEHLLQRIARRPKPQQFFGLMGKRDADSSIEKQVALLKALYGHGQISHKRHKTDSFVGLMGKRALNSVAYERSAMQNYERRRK

Kd: 3 nM
Substance: NK1 receptor (from UniProt P14600)
